Measurements: the supplement of paper PMC10567573

B1: CLCN6 (parent)
chain: VGEIVGIITRHNLTYEFLQARLRQ

Variants of: B1
Experiment: protein stability index of a GFP-peptide fusion (GPS, HEK-293T) (PSI 1-6); higher = more stable
Settings: c terminus: a fixed tail appended
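Also: lentivirally expressed fusions sorted by FACS into six bins by GFP to DsRed ratio, PSI derived from sequencing read proportions per bin multiplied by bin number.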

Protein stability index, by site and new letter:
R21: T 2.69 | V 1.67 | D 2.76 | N 2.01 | K 1.06 | Q 2.57
V1: H 2.82 | W 2.47 | P 1.44 | D 2.41 | M 2.29 | A 1.44 | N 3.06 | T 1.65 | G 1.27 | S 2.31 | Q 2.08 | Y 2.83 | L 1.76 | R 1.58 | E 2.25 | I 2.88 | C 2.26 | F 2.41 | K 2.18
I8: S 2.65 | Q 2.47 | A 1.27 | Y 1.21 | N 3.2 | E 3.29 | H 1.79 | C 1.16 | R 2.64 | L 2.03 | G 2.2
T14: N 2.03 | F 2.92 | Y 3.07 | L 2.29 | V 2.98 | E 1.22 | Q 1.26 | A 3.01
R23: P 1.86 | Q 1.69 | F 2.58 | H 1.73 | Y 4.23 | V 5.95 | E 1.2
L22: Q 2.07 | R 2.47 | K 1.93 | P 1.53 | D 1.51 | S 2.58 | M 2.37 | H 1.93 | E 1.04 | W 2.32 | Y 2.44 | N 1.15 | V 3.2
N12: K 2.04 | H 3.27 | G 5.11 | C 2.21 | R 2.69 | I 1.15 | P 1.92 | E 1.16 | A 5 | D 2.21 | Q 4
I4: S 2.23 | C 2.18 | N 2.37 | G 2.33 | A 2.1 | Q 2.38 | L 2.59 | M 2.33 | F 1.52 | K 2.15 | V 2.06 | E 2.51 | D 2.66 | T 1.75 | R 2.72 | Y 2.53 | P 2.88 | H 2.02
G6: E 4.38 | T 3.72 | P 1.7 | S 2.95 | H 2.89
Q24: N 2.8 | C 3.27 | Y 2.14 | E 3.09 | V 2.87 | S 2.53 | K 1.61 | P 2.15 | R 1.88 | A 4.07
I7: C 2.31 | G 2.44 | Q 2.72 | L 2.53 | Y 3.15 | D 2.38 | H 2.05 | E 2.07 | T 1.73 | N 2.18 | A 1.77 | P 2.56 | K 1.7
E16: R 2.46 | G 1.02 | P 1.8 | K 1.52 | W 3.79 | Q 1.93 | S 2.17 | L 3.17 | H 2.17
G2: T 2.6 | N 3 | P 1.86 | H 2.81 | L 2.48 | C 2.06 | M 1.09 | V 2.66 | E 1.75 | Q 1.13 | D 2.23 | W 3.19 | K 2.53 | Y 1.98 | A 3.29
V5: Y 2.19 | A 1.89 | E 1.76 | N 1.75 | P 2.46 | T 1.49 | H 1.92 | S 1.83 | K 1.38 | R 2.55 | G 2.29 | Q 1.37 | M 3.11
F17: E 2.01 | I 2.02 | H 1.04 | P 2.11 | T 1.87 | G 3.15 | S 2.71 | C 1.8 | Q 2.76
